± gives the standard error.
B1: library; numbered along this chain (parent)
chain: MATDAALRRLLRLHRTEIAVAVDSAFPLLHALADHDVVPEDKFQETLHLKEKEGCPQAFHALLSWLLTQDSTAILDFWRVLFKDYNLERYGRLQPILDSFPKDVDLSQPRKGRKPPAVPKALVPPPRLPTKRKASEEARAAAPAALTPRGTASPGSQLKAKPPKKPESSAEQQRLPLGNGIQTMSASVQRAVAMSSGDVPGARGAVEGILIQQVFESGGSKKCIQVGGEFYTPSKFEDSGSGKNKARSSSGPKPLVRAKGAQGAAPGGGEARLGQQGSVPAPLALPSDPQLHQKNEDECAVCRDGGELICCDGCPRAFHLACLSPPLREIPSGTWRCSSCLQATVQEVQPRAEEPRPQEPPVETPLPPGLRSAGEEVRGPPGEPLAGMDTTLVYKHLPAPPSAAPLPGLDSSALHPLLCVGPEGQQNLAPGARCGVCGDGTDVLRCTHCAAAFHWRCHFPAGTSRPGTGLRCRSCSGDVTPAPVEGVLAPSPARLAPGPAKDDTASHEPALHRDDLESLLSEHTFDGILQWAIQSMARPAAPFPS

Variants of: B1
Assay: AIRE transcriptional activation functional score (insulin promoter-GFP; nonsense median 0, synonymous median 1) (normalised score); higher = higher AIRE activity (more reporter activation)
Conditions: with insulin promoter-GFP reporter in HEK293
In short: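 Using Bxb1 recombinase, codon-optimized NNN-codon libraries for three AIRE regions were inserted into Flp-In T-REx HEK293 landing-pad cells with an insulin core promoter-GFP reporter. After integrants (mCherry+, BFP−) were sorted at day 7 and expanded for 7 days, the top 10% GFP and unselected integrant populations underwent tile-sequencing. Functional scores are wild-type-subtracted enrichments of variants in select over non-select samples. A cutoff of 10 counts per million in non-select applied, and values were rescaled (nonsense median 0, synonymous median 1) and averaged over biological replicates.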

AIRE transcriptional activation functional score of substitutions, site by site:
P331: I 1.59 ± 0.11, S 0.73 ± 0.42, W 1.26 ± 0.029, C 1 ± 0.14, K 0.702 ± 0.37, T 0.972 ± 0.2, D 1.29 ± 0.33, Q 0.548 ± 0.13, F 0.62 ± 0.15, N 1.23 ± 0.25, H 0.817 ± 0.22, L 0.9 ± 0.1, R 1.41 ± 0.2, A 1.19 ± 0.23, E 0.93 ± 0.17, M 1.35 ± 0.1, Y 1.08 ± 0.19, G 1.07 ± 0.46, V 1.21 ± 0.22
S324: W 1.45 ± 0.04, K 0.415 ± 0.31, C 1.03 ± 0.16, G 1.01 ± 0.13, N 1.08 ± 0.064, E 0.773 ± 0.19, P 0.628 ± 0.22, L 1.11 ± 0.22, I 1.06 ± 0.23, H 0.589 ± 0.076, Y 1.18 ± 0.15, D 1.13 ± 0.35, R 0.621 ± 0.46, V 0.994 ± 0.27, F 1.09 ± 0.27, Q 0.407 ± 0.052, A 1.37 ± 0.25, T 0.785 ± 0.14
S338: R 1.2 ± 0.28, N 1.3 ± 0.079, D 1.08 ± 0.17, E 0.862 ± 0.16, Y 1.11 ± 0.13, L 1.01 ± 0.18, T 1.21 ± 0.23, M 1.32 ± 0.11, K 1.08 ± 0.12, F 0.948 ± 0.13, P 0.56 ± 0.23, Q 0.916 ± 0.089, H 1.25 ± 0.079, V 0.911 ± 0.12, G 1.11 ± 0.23, I 1.18 ± 0.27, W 0.904 ± 0.038, A 0.683 ± 0.25
I330: E 0.403 ± 0.19, Y 0.572 ± 0.036, F 0.831 ± 0.17, C 0.866 ± 0.3, S 0.814 ± 0.31, W 0.987 ± 0.079, N 0.89 ± 0.13, Q 0.577 ± 0.11, R 1.07 ± 0.37, A 0.828 ± 0.26, P 1.33 ± 0.23, T 0.637 ± 0.12, G 1.16 ± 0.2, D 0.391 ± 0.074, V 0.684 ± 0.36, L 0.906 ± 0.38, K 0.557 ± 0.054
L323: A 1.11 ± 0.27, K 1.19 ± 0.27, R 1.15 ± 0.18, G 1.16 ± 0.55, M 1.8 ± 0.078, H 0.721 ± 0.073, T 1.35 ± 0.22, W 1.42 ± 0.12, P 1.33 ± 0.32, D 1.16 ± 0.038, Q 1.35 ± 0.26, N 0.866 ± 0.47, C 0.656 ± 0.52, S 0.985 ± 0.23, F 1.5 ± 0.33, V 1.21 ± 0.17, E 1.47 ± 0.11, Y 0.513 ± 0.12, I 0.984 ± 0.34
C340: A 1.65 ± 0.13, K 1.62 ± 0.11, I 1.22 ± 0.088, V 1.42 ± 0.083, M 1.61 ± 0.023, W 0.727 ± 0.019, G 1.44 ± 0.13, P 1.49 ± 0.32, R 1.31 ± 0.1, S 1.52 ± 0.17, H 1.46 ± 0.078, D 1.7 ± 0.12, Q 1.33 ± 0.12, N 1.67 ± 0.053, F 0.877 ± 0.032, T 1.71 ± 0.15, L 1.13 ± 0.11, E 1.49 ± 0.15
P326: Q 0.303 ± 0.12, F 1.72 ± 0.14, K 0.94 ± 0.23, W 1.08 ± 0.2, I 1.06 ± 0.39, N 0.815 ± 0.84, A 0.645 ± 0.45, T 0.923 ± 0.14, D 0.439 ± 0.21, R 1.17 ± 0.13, H 0.781 ± 0.18, M -0.264 ± 0.19, S 0.881 ± 0.29, C 1.19 ± 0.15, Y 1.14 ± 0.061, V 1.41 ± 0.25, E 0.653 ± 0.13, G 0.87 ± 0.28, L 1.1 ± 0.25
S332: R 1.04 ± 0.24, V 1.3 ± 0.11, Y 1.13 ± 0.22, K 0.518 ± 0.046, H 0.932 ± 0.096, I 0.887 ± 0.28, E 0.387 ± 0.16, F 1.34 ± 0.16, Q 0.542 ± 0.11, L 1.17 ± 0.25, C 0.951 ± 0.11, G 1.09 ± 0.12, A 0.774 ± 0.14, W 1.41 ± 0.042, P 0.628 ± 0.17, N 1.56 ± 0.1, T 1.23 ± 0.26, M -0.16 ± 0.054, D 0.652 ± 0.32
C337: V 1.13 ± 0.11, Q 1.5 ± 0.4, A 1.51 ± 0.18, R 1.12 ± 0.25, M 0.956 ± 0.099, W 0.733 ± 0.042, H 1.85 ± 0.1, K 1.28 ± 0.17, T 1.42 ± 0.093, P 1.47 ± 0.19, E 1.73 ± 0.059, F 0.845 ± 0.028, Y 1.07 ± 0.12, I 0.888 ± 0.13, L 1.16 ± 0.089, N 1.53 ± 0.22, D 1.68 ± 0.34, S 1.33 ± 0.29, G 1.5 ± 0.28
R336: N 1.03 ± 0.2, T 0.895 ± 0.33, K 1.67 ± 0.098, V 0.812 ± 0.47, P 1.38 ± 0.26, Q 0.346 ± 0.19, I 0.734 ± 0.31, E 0.646 ± 0.25, Y 0.141 ± 0.34, C 1.2 ± 0.12, M 0.49 ± 0.24, S 1.04 ± 0.2, A 1.02 ± 0.3, W 0.655 ± 0.03, H 0.786 ± 0.042, L 0.658 ± 0.29, F 1.13 ± 0.43, D 1.73 ± 0.24, G 1.33 ± 0.33
S339: H 1.27 ± 0.26, G 0.951 ± 0.37, D 0.853 ± 0.26, W 0.962 ± 0.052, P 1.13 ± 0.22, R 1.11 ± 0.2, A 1.13 ± 0.22, Y 1.09 ± 0.096, T 1.12 ± 0.24, M 0.1 ± 0.043, C 0.985 ± 0.18, Q 1.16 ± 0.21, N 0.771 ± 0.44, F 0.807 ± 0.069, I 0.884 ± 0.15, E 0.838 ± 0.15, K 0.757 ± 0.12, V 0.99 ± 0.15, L 0.775 ± 0.22
C322: W 0.487 ± 0.025, Y 0.843 ± 0.064, V 0.9 ± 0.12
E329: G 0.92 ± 0.3, F 1.58 ± 0.24, S 1.09 ± 0.2, D 1.74 ± 0.17, T 0.98 ± 0.26, V 1.1 ± 0.18, R 0.935 ± 0.41, W 1.13 ± 0.044, I 1.46 ± 0.24, K 0.00515 ± 0.43, C 1.46 ± 0.21, N 1.33 ± 0.079, P 0.962 ± 0.13, Y 1.42 ± 0.31, A 1.11 ± 0.39, H 1.45 ± 0.053, Q -1.43 ± 0.53, L 1.16 ± 0.3
R328: A 0.877 ± 0.29, L 1.08 ± 0.21, S 1.17 ± 0.17, C 0.932 ± 0.48, V 1.1 ± 0.22, G 0.729 ± 0.26, M 1.1 ± 0.11, E 1.06 ± 0.071, K 0.67 ± 0.29, F 0.907 ± 0.48, H -0.256 ± 0.33, Y 1.34 ± 0.16, P 1.22 ± 0.21, Q 0.659 ± 0.048, T 0.764 ± 0.2, I 1.17 ± 0.46
T334: S 0.928 ± 0.21, F 1.25 ± 0.23, A 0.83 ± 0.38, K 0.794 ± 0.15, C 0.7 ± 0.29, V 0.952 ± 0.29, N 0.91 ± 0.15, H 0.766 ± 0.4, Q 0.621 ± 0.44, W 1.39 ± 0.14, I 0.977 ± 0.26, M 1.08 ± 0.054, R 1.06 ± 0.42, D 0.352 ± 0.11, Y 1.17 ± 0.19, L 1.12 ± 0.21, G 1.23 ± 0.26, P 0.902 ± 0.28
P325: K 1.55 ± 0.083, F 1.01 ± 0.08, A 1.15 ± 0.11, W 0.913 ± 0.05, Q 0.938 ± 0.21, R 0.876 ± 0.29, V 0.965 ± 0.077, I 1.07 ± 0.24, Y 1.18 ± 0.32, G 1.1 ± 0.17, H 0.387 ± 0.14, C 1.04 ± 0.35, S 1.21 ± 0.33, T 0.777 ± 0.25, N 0.521 ± 0.16, D 0.208 ± 0.6, E 1.45 ± 0.17, M 1.15 ± 0.14, L 1.12 ± 0.29
L327: P 0.673 ± 0.37, T 0.786 ± 0.33, K 0.524 ± 0.14, F 1.21 ± 0.13, G 0.535 ± 0.21, Y 1.2 ± 0.3, I 0.913 ± 0.27, D 0.96 ± 0.2, H -0.118 ± 0.56, R 1.05 ± 0.31, A 1.07 ± 0.3, Q 1.33 ± 0.21, N 1.37 ± 0.07, V 0.621 ± 0.33, M 1.3 ± 0.051, C 0.927 ± 0.26, W 1.69 ± 0.054, E 0.71 ± 0.14, S 1.14 ± 0.24
W335: G 1.27 ± 0.12, L 0.997 ± 0.24, C 1.24 ± 0.1, H 0.428 ± 0.28, A 1.3 ± 0.48, E 1.3 ± 0.14, S 1.27 ± 0.35, K 1.12 ± 0.3, N 0.721 ± 0.19, D 1.1 ± 0.21, Y 0.768 ± 0.46, V 1.24 ± 0.14, I 1.02 ± 0.12, M 1.39 ± 0.12, F 0.764 ± 0.1, T 1.26 ± 0.33, P 1.04 ± 0.19, R 1.29 ± 0.29, Q 1.19 ± 0.092
G333: R 1.08 ± 0.33, I 0.774 ± 0.32, Y 1.26 ± 0.36, Q 0.597 ± 0.094, N 0.719 ± 0.62, V 1.05 ± 0.15, C 1.14 ± 0.053, T 0.561 ± 0.19, K 1.24 ± 0.25, L 1.17 ± 0.33, D 0.864 ± 0.14, F 1.02 ± 0.16, M 1.72 ± 0.15, S 0.365 ± 0.58, E 0.832 ± 0.22, A 0.871 ± 0.34, P 0.594 ± 0.3, W 1.82 ± 0.046

From the supplement of paper PMC12667976
